Source: the supplement of paper PMC9732359
± gives the uncertainty stated by the source.

Assay: protein stability index of a GFP-peptide fusion (yeast GPS) (PSI 1-4); higher = more stable; sorted into four equal gates, so the index is relative within each strain
Method in brief: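 Plasmids isolated from each sorting gate were PCR-amplified and Illumina-sequenced, and barcodes assigned the reads to strains. The gates, four of equal size, were set by GFP/Cherry fluorescence ratio on mid-log cultures in leucine-free medium. These cultures were yeast carrying a pooled library of tiled 17-residue yeast protein peptides fused downstream of GFP on a plasmid that also expresses Cherry. The protein stability index is the sum of every gate's read frequency times its gate number.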

Row | Sequence | protein stability index (doa10∆) | protein stability index (pdr5∆) | protein stability index (san1∆) | protein stability index (ubr1∆)
1 | ITHTENYNDLIVNYEDL [BRN1] | 3.17 ± 0.09 | 2.94 ± 0.12 | 2.56 ± 0.14 | 3.2 ± 0.072
2 | RAGQRTRFKAVVVVGDS [RPS2] | 2.07 ± 0.056 | 2.2 ± 0.063 | 2.28 ± 0.088 | 2.29 ± 0.048
3 | VFKLSTNLISKISLLRP [SWP82] | 2.11 ± 0.099 | 2.43 ± 0.1 | 2.13 ± 0.18 | 2.87 ± 0.088
4 | SNININVNNNNIGQQQV [SWI1] | 2.64 ± 0.19 | 3.01 ± 0.2 | 3.07 ± 0.074 | 3.13 ± 0.21
5 | IILSIDEHHESFELKEE [RRP6] | 3.19 ± 0.1 | 2.99 ± 0.15 | 3.08 ± 0.08 | 2.98 ± 0.088
6 | KNLQRESCEDILDLKEF [RTT102] | 3.59 ± 0.21 | 3.31 ± 0.13 | 3.17 ± 0.28 | 3.45 ± 0.16
7 | RLAEVNLKDLNNVKQMV [RPO21] | 2.77 ± 0.26 | – | 2.9 ± 0.25 | 3.08 ± 0.18
8 | NKVCRIEAASTTQDQCK [RPB8] | 2.66 ± 0.056 | 2.89 ± 0.07 | 2.63 ± 0.075 | 2.93 ± 0.063
9 | IMKNKDFILSLLHHVSE [YJL039C/NUP192] | 2.41 ± 0.12 | 2.35 ± 0.099 | 1.92 ± 0.11 | 2.52 ± 0.065
10 | SDNIASLQYINIRGNTI [SMD1] | 3.08 ± 0.059 | 3.22 ± 0.056 | 2.86 ± 0.063 | 3.01 ± 0.048
11 | NNRQLPYLVANVVEVMD [RPT5] | 2.4 ± 0.11 | 2.78 ± 0.07 | 2.58 ± 0.14 | 2.71 ± 0.074
12 | WLAEKFQKETNMKVTIL [PRP28] | 2.81 ± 0.18 | 3.17 ± 0.11 | 3.27 ± 0.25 | 2.79 ± 0.11
13 | PLQVARCTKIIKGNGES [RPT1] | 2.96 ± 0.16 | 2.96 ± 0.081 | 2.72 ± 0.09 | 2.01 ± 0.14
14 | LRSRLQQQQQQQQQTSP [SNF5] | 2.58 ± 0.057 | 2.95 ± 0.058 | 2.76 ± 0.05 | 2.78 ± 0.049
15 | EVYEALKEVLYNDSATS [RPN2] | 3.34 ± 0.18 | 3.45 ± 0.15 | – | 3.46 ± 0.08
16 | LIKTLSTLHMLGYTHIA [RPP1] | 2.49 ± 0.081 | 2.65 ± 0.087 | 2.62 ± 0.099 | 2.65 ± 0.071
17 | LRLGRGINPNTFRIFHN [YDL088C/ASM4] | 2.39 ± 0.062 | 1.88 ± 0.071 | 1.86 ± 0.11 | 1.65 ± 0.038
18 | LAFAKLVHSEYLINGKR [SRP68] | 2.18 ± 0.11 | 2.5 ± 0.056 | 2.15 ± 0.082 | 2.53 ± 0.034
19 | KAERVEDQKVVDKALIA [RPL6A] | 3.25 ± 0.057 | 3.5 ± 0.06 | 3.4 ± 0.044 | 3.5 ± 0.05
20 | SLTEKFSQTVADNNDLQ [ECM29] | 2.48 ± 0.049 | 2.71 ± 0.056 | 2.64 ± 0.068 | 2.35 ± 0.048
21 | LQVSEKDLFELERYYKE [ARP7] | 3.14 ± 0.085 | 3.23 ± 0.077 | 3.48 ± 0.14 | 3.46 ± 0.065
22 | YVISLSYTDAQDKSKKI [YMR129W/POM152] | 2.67 ± 0.12 | 2.95 ± 0.082 | 2.9 ± 0.072 | 2.68 ± 0.06
23 | IIESHLIQLQNIFKAEM [CSN9] | 2.75 ± 0.1 | 3.14 ± 0.11 | 2.85 ± 0.088 | 2.74 ± 0.073
24 | TQTYMQMIELNRQICLV [GRR1] | 2.35 ± 0.13 | 1.44 ± 0.073 | 1.35 ± 0.19 | 1.25 ± 0.047
25 | TWRTQLAASEIGISIVG [ECM29] | 1.72 ± 0.065 | 2 ± 0.083 | 1.68 ± 0.071 | 1.88 ± 0.037
26 | RRRREGKTDYYQRKRLV [RPL5] | 3.31 ± 0.094 | 3.26 ± 0.079 | 3.13 ± 0.046 | 3.26 ± 0.035
27 | TRYMFQRDFRKHGAVHL [RPL21A] | 2.42 ± 0.062 | 2.27 ± 0.069 | 2.33 ± 0.084 | 2.44 ± 0.092

Row | Sequence | protein stability index (doa10∆) | protein stability index (pdr5∆) | protein stability index (san1∆) | protein stability index (ubr1∆)
28 | ELLNADHQHILRKLKKM [RPC53] | 1.13 ± 0.059 | 1.24 ± 0.063 | 1.11 ± 0.15 | 1.28 ± 0.046
29 | DTFDGSDLRVLSGSISE [FAS1] | 1.6 ± 0.079 | 2.34 ± 0.067 | 1.49 ± 0.14 | 1.79 ± 0.059
30 | HICGICGLMTVIAKLNH [RPB2] | 1.65 ± 0.077 | 1.33 ± 0.08 | 1.23 ± 0.14 | 1.43 ± 0.066
31 | LDDPEAVSKDPLLTKRK [DIS3] | 2.9 ± 0.11 | 3.44 ± 0.1 | 3.34 ± 0.094 | 3.1 ± 0.059
32 | RKQIDETQVLVSTPEKW [BRR2] | 2.07 ± 0.052 | 2.46 ± 0.058 | 2.31 ± 0.055 | 2.77 ± 0.028
33 | DRPGSKFHKREVVEAVT [RPL3] | 3.04 ± 0.15 | 1.96 ± 0.14 | 2.02 ± 0.19 | 2.41 ± 0.13
34 | QRVFKPVDITMMENYQN [PRP8] | 2.43 ± 0.063 | 2.27 ± 0.074 | 2.71 ± 0.073 | 2.41 ± 0.048
35 | VLSSVREPDFWVIRKQR [MED6] | 3.52 ± 0.12 | 3.44 ± 0.1 | 3.54 ± 0.12 | 3.11 ± 0.12
36 | TPQQLQMIQQRHQQLLR [SNF5] | 1.9 ± 0.044 | 2.32 ± 0.045 | 2.04 ± 0.052 | 1.74 ± 0.045
37 | LKFVKVRVRTTKIPQIG [RPB2] | 2.51 ± 0.073 | 2.55 ± 0.079 | 2.85 ± 0.13 | 2.52 ± 0.04
38 | QNIETRQLANLIPFIVK [NUT1] | 1.61 ± 0.054 | 1.58 ± 0.041 | 1.41 ± 0.086 | 1.63 ± 0.039
39 | LGKFKNIIASPLSAGFN [SIN4] | 1.88 ± 0.06 | 1.94 ± 0.05 | 1.95 ± 0.09 | 2.04 ± 0.056
40 | IEKWTANLLPARQFGYV [RPS22A] | 1.6 ± 0.075 | 1.92 ± 0.088 | 1.8 ± 0.15 | 2.14 ± 0.17
41 | RELEQIKPKIALQDKEI [SNF12] | 3.15 ± 0.18 | 3.35 ± 0.17 | – | 3.05 ± 0.13
42 | DITGDIRNEGSDAEEEE [ISW2] | 2.83 ± 0.16 | 3.1 ± 0.1 | 3.05 ± 0.089 | 2.91 ± 0.068
43 | KLVRDAFALAKEKAPTI [RPT5] | 2.56 ± 0.072 | 2.49 ± 0.09 | 2.94 ± 0.083 | 3.08 ± 0.083
44 | ALSAYHKVQTKLTRELE [RPS7B] | 2.4 ± 0.055 | 2.54 ± 0.058 | 2.33 ± 0.065 | 2.58 ± 0.043
45 | YKKIPLLGPTLEDHTPP [QCR10] | 2.34 ± 0.05 | 2.59 ± 0.057 | 2.42 ± 0.083 | 2.76 ± 0.029
46 | SLQQMQHLQQLKMQQQQ [GAL11] | 2.05 ± 0.096 | 2.09 ± 0.06 | 2.36 ± 0.099 | 1.41 ± 0.08
47 | TSVENEGPVANLKDYEL [REC8] | 3.38 ± 0.11 | 3.41 ± 0.12 | 3.03 ± 0.13 | 3.16 ± 0.076
48 | SLNTKKNEKLILEESLN [SMC3] | 2.18 ± 0.064 | 2 ± 0.074 | 2.59 ± 0.15 | 2.6 ± 0.078
49 | VLTNIEVYRTSLNTKKN [SMC3] | 2.61 ± 0.17 | 3.08 ± 0.19 | – | 2.85 ± 0.12
50 | FEGNALIRRLVRVGVLS [RPS9A] | 2.44 ± 0.1 | 2.52 ± 0.18 | – | 1.15 ± 0.17
51 | ISTACPRLDDVVVDTVE [SMC4] | 3.51 ± 0.071 | 3.43 ± 0.094 | 3.3 ± 0.058 | 3.46 ± 0.093
52 | AINLMGVKNNLLTPKSG [RPO31] | 3.11 ± 0.13 | 2.76 ± 0.12 | 2.76 ± 0.13 | 2.63 ± 0.11
53 | AGAGEANGTVVSFIKNG [MTR3] | 1.79 ± 0.16 | 2.53 ± 0.2 | – | 2.21 ± 0.11
